Values joined by “and” are separate entries in the source; they are usually repeats but may differ in a detail not shown here. Equal values may be shown once.

This is an account of results in patent US20040096901A1.

This assay has as its target CD45 antigen (leukocyte common antigen), human, on cells (human) (UniProt P08575). Put plainly: cell-based or functional assay.

B1: chimeric anti-CD45RO/RB mAb "candidate mAb" (antibody, human IgG1, kappa, V domains shown)
VH: EVQLQQSGPELVKPGASVKMSCKASGYTFTNYIIHWVKQEPGQGLEWIGYFNPYNHGTKYNEKFKGRATLTADKSSNTAYMDLSSLTSEDSAIYYCARSGPYAWFDTWGQGTTVTVSS
VL: DILLTQSPAILSVSPGERVSFSCRASQNIGTSIQWYQQRTNGSPRLLIRSSSESISGIPSRFSGSGSGTDFTLSINSVESEDIADYYCQQSNTWPFTFGSGTKLEIKR
Regarding B1, the % of Inhibition of primary MLR (responder #211 CD4, stimulator #219 CD3), 10 ug/ml mAb amounted to 63.5%; the % of Inhibition of primary MLR (responder #220 CD4, stimulator #219 CD3 depl.), 10 ug/ml mAb was found to be 63.1%; the % of Inhibition of primary MLR (responder #227 CD4, stimulator #220 CD3 depl.), 10 ug/ml mAb worked out at 66%; the % of Inhibition of primary MLR (responder #229 CD4, stimulator #219 CD3 depl.), 10 ug/ml mAb amounted to 50.8%. For the same molecule, the IC50 for the inhibition of primary MLR (cellular activity IC50) was 0.87 nM and 0.13 µg/ml.
